According to US20250066451A1:

Tests used:
[1] = target: IL-1R-I on cells (TF-1 cells, NHDF cells, human whole blood) (human) (UniProt P14778); test: cell-based or functional assay
[2] = target: human IL-1R-I on Normal Human Dermal Fibroblasts (NHDF) cells (human) (UniProt P14778); test: cell-based or functional assay
Sequence of human IL-1R-I on Normal Human Dermal Fibroblasts (NHDF) cells (human) (P14778 18-569): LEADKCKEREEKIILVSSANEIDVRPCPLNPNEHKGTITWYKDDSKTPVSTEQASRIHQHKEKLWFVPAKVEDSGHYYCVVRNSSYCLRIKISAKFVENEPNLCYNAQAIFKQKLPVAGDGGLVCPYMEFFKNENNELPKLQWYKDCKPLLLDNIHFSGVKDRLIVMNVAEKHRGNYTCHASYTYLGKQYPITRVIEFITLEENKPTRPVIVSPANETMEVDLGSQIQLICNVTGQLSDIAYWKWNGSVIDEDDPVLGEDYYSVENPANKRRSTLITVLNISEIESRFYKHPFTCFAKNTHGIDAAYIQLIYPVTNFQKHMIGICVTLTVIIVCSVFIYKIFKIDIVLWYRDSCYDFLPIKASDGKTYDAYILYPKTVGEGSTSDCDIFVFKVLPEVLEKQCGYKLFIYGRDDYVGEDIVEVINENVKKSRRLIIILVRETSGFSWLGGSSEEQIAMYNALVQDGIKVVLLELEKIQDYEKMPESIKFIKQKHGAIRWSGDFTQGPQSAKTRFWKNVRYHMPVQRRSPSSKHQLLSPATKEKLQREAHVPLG

Sequence of IL-1R-I on cells (TF-1 cells, NHDF cells, human whole blood) (human) (P14778 18-569): as above

Substance	IC50, inhibition of IL-1B induced proliferation of TF-1 cells [1] [nM]	median IC50, IL-1B induced IL-6 release in human whole blood [1] [nM]	median IC50, IL-1B induced IL-6 release in human whole blood (legend of FIG. 3) [1] [nM]	IC50 (pM), inhibition of IL-1B induced IL-6 release in NHDF cells [2] [pM]
anakinra (Kineret, Sobi) (from UniProt P18510 26-177) (ligand)	0.05	0.31	0.3	
anakinra (from UniProt P18510 26-177) (ligand)				70
